# Source: patent US20260265348A1 (HEIDELBERG IMMUNOTHERAPEUTICS, published 2026)
# Experiments:
# [1] = target: HSV-1F gB R335Q (HDIT102(H4)-resistant escape mutant) (HSV-1 strain F, UniProt P06436 30-903); experiment: cell-based or functional assay
# [2] = target: glycoprotein B (gB) of HSV-1 strain F, full length, wild type (HSV-1 strain F, UniProt P06436 30-903); experiment: cell-based or functional assay
# [3] = target: HSV-1F gB R335A (HSV-1 strain F, UniProt P06436 30-903); experiment: cell-based or functional assay
# [4] = target: HSV-1F gB K204A (HSV-1 strain F, UniProt P06436 30-903); experiment: cell-based or functional assay
# [5] = target: HSV-1F gB Y326A (HSV-1 strain F, UniProt P06436 30-903); experiment: cell-based or functional assay
# [6] = target: T1, HSV-1F gB R304Q (HDIT101-resistance mutant) (HSV-1 strain F, UniProt P06436 30-903); experiment: cell-based or functional assay
# [7] = target: HSV-1F gB D199A (HSV-1 strain F, UniProt P06436 30-903); experiment: cell-based or functional assay
# [8] = target: HSV-1F gB K320A (HSV-1 strain F, UniProt P06436 30-903); experiment: cell-based or functional assay
# [9] = target: glycoprotein B (gB) of HSV-2 strain G, full length, wild type (HSV-2 strain G); experiment: cell-based or functional assay
# [10] = target: T2, recombinant HSV-1F glycoprotein B (gB) ectodomain (aa 30-729), trimeric (HSV-1 strain F, UniProt P06436 30-729); experiment: BLI (Octet), Fab, Kd=kdis/ka
# T2 construct: also called recombinant HSV-1 gB; HSV-1F gB
# [11] = target: T2, recombinant HSV-1F glycoprotein B (gB) …; experiment: BLI (Octet), biotinylated gB on streptavidin tips, Fab dilution series, global 1:1 fit; Fab; HSV-1F gB
# [12] = target: T1, HSV-1F gB R304Q (HDIT101-resistance …); experiment: flow cytometry of HEK293T cells transfected with a gB plasmid, FITC anti-human Fc secondary antibody, iMFI
# [13] = target: T2, recombinant HSV-1F glycoprotein B (gB) …; experiment: BLI (Octet), biotinylated gB on streptavidin tips, IgG in solution; full IgG, not Fab
# [14] = target: T2, recombinant HSV-1F glycoprotein B (gB) …; experiment: BLI (Octet), biotinylated gB on streptavidin tips, Fab dilution series, global 1:1 fit
binder,measurement,setting,value
"HDIT102(H4), fully human IgG1 anti-HSV gB antibody (antibody, V domains shown) VH: EVQLVQSGAEVKTPGASVRVSCKASGHTFRTFDINWVRQAAGQGLEWMGWMSPNSGNTGYARQFQGRVTMTRNISANTAYMELRGLRFDDTAVYYCARGPGSTGTTGSMDVWGQGTTVTVSS VL: QAGLTQPPSVSVAPGKTARISCGGNNIGSKSVHWYQQKPGQAPVLVIYYDSDRPSGIPERFSGSNSGNTATLTISRVEAGDEADYYCQVWDSGSVVFGGGTKLTVLG","inhibition of gB-mediated cell-cell fusion by HDIT102(H4) (75 µg/ml), relative to wild type gB",[1],18.8 % of WT
same,inhibitory concentration for 50% neutralization (IC50) of 100 TCID50 cell-free HSV-1F on Vero cells,[2],25.5 nM
same,"inhibition of gB-mediated cell-cell fusion by HDIT102(H4) (75 µg/ml), relative to wild type gB",[3],19.3 % of WT
same,"inhibition of gB-mediated cell-cell fusion by HDIT102(H4) (75 µg/ml), relative to wild type gB",[4],57.3 % of WT
same,"inhibition of gB-mediated cell-cell fusion by HDIT102(H4) (75 µg/ml), relative to wild type gB",[5],72.7 % of WT
same,"inhibition of gB-mediated cell-cell fusion by HDIT102(H4) (75 µg/ml), relative to wild type gB",[6],92.3 % of WT
same,"inhibition of gB-mediated cell-cell fusion by HDIT102(H4) (75 µg/ml), relative to wild type gB",[7],32.9 % of WT
same,"inhibition of gB-mediated cell-cell fusion by HDIT102(H4) (75 µg/ml), relative to wild type gB",[8],90.1 % of WT
same,inhibitory concentration for 50% neutralization (IC50) of 100 TCID50 cell-free HSV-2G on Vero cells,[9],12.5 nM
"HDIT102(H4) Fab (Fab, V domains shown, also called Fab HDIT102; Fab HDIT102 (H4)) VH: EVQLVQSGAEVKTPGASVRVSCKASGHTFRTFDINWVRQAAGQGLEWMGWMSPNSGNTGYARQFQGRVTMTRNISANTAYMELRGLRFDDTAVYYCARGPGSTGTTGSMDVWGQGTTVTVSS VL: QAGLTQPPSVSVAPGKTARISCGGNNIGSKSVHWYQQKPGQAPVLVIYYDSDRPSGIPERFSGSNSGNTATLTISRVEAGDEADYYCQVWDSGSVVFGGGTKLTVLG",Kd,[10],0.0895 nM
same,koff,[11],8.85e-05 s⁻¹
same,kon,[11],992000 M⁻¹ s⁻¹
"HDIT101, humanized IgG1 MAb2c (antibody, V domains shown, also called MAb hu2c; HDIT101 IgG) VH: QVTLKESGPALVKPTQTLTLTCTFSGFSLSTSGMSVGWIRQPPGKALEWLAHIWWNNDKYYKPALKSRLTISKDTSKNQVVLTMTNMDPVDTATYYCARIYYGYRPYAMDYWGQGTLVTVSS VL: DIVMTQTPLSLPVTPGEPASISCRSSQSIVHSNGNTYLEWYLQKPGQSPQLLIYKVSNRFSGVPDRFSGSGSGTDFTLKISRVEAEDVGVYYCFQGSHVPWSFGQGTKVEIKR",binding result,[12],no binding
same,koff,[13],~0.0011 s⁻¹
"HDIT101 Fab (Fab, V domains shown) VH: QVTLKESGPALVKPTQTLTLTCTFSGFSLSTSGMSVGWIRQPPGKALEWLAHIWWNNDKYYKPALKSRLTISKDTSKNQVVLTMTNMDPVDTATYYCARIYYGYRPYAMDYWGQGTLVTVSS VL: DIVMTQTPLSLPVTPGEPASISCRSSQSIVHSNGNTYLEWYLQKPGQSPQLLIYKVSNRFSGVPDRFSGSGSGTDFTLKISRVEAEDVGVYYCFQGSHVPWSFGQGTKVEIKR",Kd,[10],7.26 nM
same,koff,[14],0.00313 s⁻¹
same,kon,[11],435000 M⁻¹ s⁻¹
